Assays:
FGFR1 = FGFR1 (UniProt P11362); test: phosphorylation enrichment, bacterial display (enrichment ratio); higher = better substrate or ligand; peptides without Tyr show the background
c-Abl (mouse) = test: as above
FGFR3 = FGFR3 (UniProt P22607); test: as above
EPHB2 = EPHB2 (UniProt P29323); test: as above
Fer (mouse) = test: as above
c-Src = test: as above
AncSZ = test: as above
EPHB1 = EPHB1 (UniProt P54762); test: as above
Hck = Hck (UniProt P08631); test: as above
MERTK = MERTK (UniProt Q12866); test: as above
Fyn = Fyn (UniProt P06241); test: as above
Sequence of Fyn (P06241 whole entry, looked up): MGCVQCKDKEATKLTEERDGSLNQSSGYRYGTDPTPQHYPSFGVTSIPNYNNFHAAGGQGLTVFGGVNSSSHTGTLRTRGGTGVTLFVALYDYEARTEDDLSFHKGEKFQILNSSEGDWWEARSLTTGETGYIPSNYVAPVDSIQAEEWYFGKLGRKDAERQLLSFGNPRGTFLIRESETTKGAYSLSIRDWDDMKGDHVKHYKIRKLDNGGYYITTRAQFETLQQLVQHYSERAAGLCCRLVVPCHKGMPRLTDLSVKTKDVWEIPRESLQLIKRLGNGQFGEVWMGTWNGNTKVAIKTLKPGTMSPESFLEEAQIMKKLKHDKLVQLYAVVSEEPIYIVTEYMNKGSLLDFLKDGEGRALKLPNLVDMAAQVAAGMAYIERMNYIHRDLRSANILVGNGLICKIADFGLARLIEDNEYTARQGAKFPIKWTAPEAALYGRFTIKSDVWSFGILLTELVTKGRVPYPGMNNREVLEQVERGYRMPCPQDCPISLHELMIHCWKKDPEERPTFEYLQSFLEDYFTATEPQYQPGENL

Fes = Fes (UniProt P07332); test: as above
Sequence of Fes (P07332 whole entry, looked up): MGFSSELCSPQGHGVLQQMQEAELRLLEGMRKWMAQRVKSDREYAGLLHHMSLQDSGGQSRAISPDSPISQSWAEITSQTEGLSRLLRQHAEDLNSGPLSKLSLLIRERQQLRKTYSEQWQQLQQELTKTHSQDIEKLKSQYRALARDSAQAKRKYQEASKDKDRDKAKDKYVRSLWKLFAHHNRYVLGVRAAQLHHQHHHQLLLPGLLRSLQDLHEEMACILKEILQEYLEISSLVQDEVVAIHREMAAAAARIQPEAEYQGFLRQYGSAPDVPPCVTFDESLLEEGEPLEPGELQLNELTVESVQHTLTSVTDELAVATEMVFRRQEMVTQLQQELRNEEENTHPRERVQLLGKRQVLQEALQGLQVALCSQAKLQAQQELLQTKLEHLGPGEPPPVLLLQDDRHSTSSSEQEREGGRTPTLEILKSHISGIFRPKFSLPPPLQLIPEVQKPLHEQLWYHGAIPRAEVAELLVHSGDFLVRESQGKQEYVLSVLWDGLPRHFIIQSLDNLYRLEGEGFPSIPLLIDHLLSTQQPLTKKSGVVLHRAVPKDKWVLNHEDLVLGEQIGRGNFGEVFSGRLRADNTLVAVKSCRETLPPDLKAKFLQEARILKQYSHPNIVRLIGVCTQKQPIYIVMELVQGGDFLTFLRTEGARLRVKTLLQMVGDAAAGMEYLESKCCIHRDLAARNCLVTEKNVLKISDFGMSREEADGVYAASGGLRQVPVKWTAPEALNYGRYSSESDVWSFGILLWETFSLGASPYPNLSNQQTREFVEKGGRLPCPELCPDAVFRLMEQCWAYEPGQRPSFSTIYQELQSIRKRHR

Jak2 = Jak2 (UniProt O60674); test: as above
Sequence of Jak2 (O60674 whole entry, looked up): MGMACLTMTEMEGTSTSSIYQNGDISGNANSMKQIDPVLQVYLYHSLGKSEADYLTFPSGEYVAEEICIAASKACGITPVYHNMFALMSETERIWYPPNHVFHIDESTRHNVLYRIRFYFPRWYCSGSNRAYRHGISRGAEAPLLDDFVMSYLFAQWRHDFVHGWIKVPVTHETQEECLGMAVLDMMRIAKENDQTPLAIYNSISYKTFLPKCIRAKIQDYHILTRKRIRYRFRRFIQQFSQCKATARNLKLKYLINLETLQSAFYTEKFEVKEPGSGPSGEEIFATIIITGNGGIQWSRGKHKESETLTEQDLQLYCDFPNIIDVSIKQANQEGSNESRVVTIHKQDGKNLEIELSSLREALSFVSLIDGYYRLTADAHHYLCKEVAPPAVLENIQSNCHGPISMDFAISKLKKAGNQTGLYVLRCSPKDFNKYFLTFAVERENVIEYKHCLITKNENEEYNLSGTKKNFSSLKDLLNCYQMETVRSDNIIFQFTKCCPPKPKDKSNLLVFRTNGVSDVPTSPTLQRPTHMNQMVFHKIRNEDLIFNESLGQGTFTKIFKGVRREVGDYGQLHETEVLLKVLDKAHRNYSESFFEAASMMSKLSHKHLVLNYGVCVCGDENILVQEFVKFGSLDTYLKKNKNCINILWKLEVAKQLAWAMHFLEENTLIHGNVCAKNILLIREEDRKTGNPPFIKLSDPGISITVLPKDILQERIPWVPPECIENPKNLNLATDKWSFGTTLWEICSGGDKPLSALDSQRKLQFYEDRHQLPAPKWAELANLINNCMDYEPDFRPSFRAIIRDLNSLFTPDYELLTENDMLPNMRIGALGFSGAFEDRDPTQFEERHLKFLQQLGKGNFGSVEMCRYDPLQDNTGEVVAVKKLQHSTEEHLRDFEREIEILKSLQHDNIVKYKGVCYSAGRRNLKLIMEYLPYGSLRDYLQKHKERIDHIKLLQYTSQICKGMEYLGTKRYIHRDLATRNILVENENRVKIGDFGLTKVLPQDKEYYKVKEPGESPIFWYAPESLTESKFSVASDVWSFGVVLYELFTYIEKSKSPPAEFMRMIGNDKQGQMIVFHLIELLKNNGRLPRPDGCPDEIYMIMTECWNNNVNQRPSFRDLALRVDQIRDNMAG

SHP2-C SH2 = test: SH2 binding enrichment of the phosphorylated peptide, bacterial display (enrichment ratio); higher = better substrate or ligand; peptides without Tyr show the background
Grb2 SH2 = Grb2 SH2 (UniProt P62993); test: as above
Sequence of Grb2 SH2 (P62993 whole entry, looked up): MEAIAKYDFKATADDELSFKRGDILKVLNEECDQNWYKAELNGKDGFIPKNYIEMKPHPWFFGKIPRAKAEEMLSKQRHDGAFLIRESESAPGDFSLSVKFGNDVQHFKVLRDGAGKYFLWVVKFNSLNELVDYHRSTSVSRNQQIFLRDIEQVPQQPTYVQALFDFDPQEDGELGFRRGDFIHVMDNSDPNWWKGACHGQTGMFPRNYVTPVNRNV

c-Src SH2 = test: as above
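Wherever SH2 binding enrichment of the phosphorylated peptide, bacterial display is given: peptide library displayed on the E. coli surface as eCPX fusions, selected cells deep-sequenced, score is each peptide's frequency after selection divided by its frequency in the input.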
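Wherever phosphorylation enrichment, bacterial display is given: 11-residue human phosphosite peptides and single-mutation variants displayed on the E. coli surface, counted by deep sequencing, each peptide's frequency after selection divided by its frequency in the unselected input library; frequency after pTyr selection over input frequency; kinase dosed for 20-30% of maximal phosphorylation in three min.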

Sequence of Hck (P08631 whole entry, looked up): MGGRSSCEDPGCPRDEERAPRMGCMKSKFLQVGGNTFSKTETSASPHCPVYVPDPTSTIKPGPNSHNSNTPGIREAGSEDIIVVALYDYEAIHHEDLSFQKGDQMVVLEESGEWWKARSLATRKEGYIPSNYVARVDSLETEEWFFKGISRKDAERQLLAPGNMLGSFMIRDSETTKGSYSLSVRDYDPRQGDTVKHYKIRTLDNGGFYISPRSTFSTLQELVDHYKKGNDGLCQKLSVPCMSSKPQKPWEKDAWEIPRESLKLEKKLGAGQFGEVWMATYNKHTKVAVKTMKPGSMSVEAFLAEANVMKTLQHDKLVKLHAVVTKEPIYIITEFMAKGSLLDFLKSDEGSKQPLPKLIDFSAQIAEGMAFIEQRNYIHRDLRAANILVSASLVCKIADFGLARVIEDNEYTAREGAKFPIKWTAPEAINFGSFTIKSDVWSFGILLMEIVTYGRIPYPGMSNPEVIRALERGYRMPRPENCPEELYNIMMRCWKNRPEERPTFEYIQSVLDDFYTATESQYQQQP
Sequence of FGFR1 (P11362 whole entry, looked up): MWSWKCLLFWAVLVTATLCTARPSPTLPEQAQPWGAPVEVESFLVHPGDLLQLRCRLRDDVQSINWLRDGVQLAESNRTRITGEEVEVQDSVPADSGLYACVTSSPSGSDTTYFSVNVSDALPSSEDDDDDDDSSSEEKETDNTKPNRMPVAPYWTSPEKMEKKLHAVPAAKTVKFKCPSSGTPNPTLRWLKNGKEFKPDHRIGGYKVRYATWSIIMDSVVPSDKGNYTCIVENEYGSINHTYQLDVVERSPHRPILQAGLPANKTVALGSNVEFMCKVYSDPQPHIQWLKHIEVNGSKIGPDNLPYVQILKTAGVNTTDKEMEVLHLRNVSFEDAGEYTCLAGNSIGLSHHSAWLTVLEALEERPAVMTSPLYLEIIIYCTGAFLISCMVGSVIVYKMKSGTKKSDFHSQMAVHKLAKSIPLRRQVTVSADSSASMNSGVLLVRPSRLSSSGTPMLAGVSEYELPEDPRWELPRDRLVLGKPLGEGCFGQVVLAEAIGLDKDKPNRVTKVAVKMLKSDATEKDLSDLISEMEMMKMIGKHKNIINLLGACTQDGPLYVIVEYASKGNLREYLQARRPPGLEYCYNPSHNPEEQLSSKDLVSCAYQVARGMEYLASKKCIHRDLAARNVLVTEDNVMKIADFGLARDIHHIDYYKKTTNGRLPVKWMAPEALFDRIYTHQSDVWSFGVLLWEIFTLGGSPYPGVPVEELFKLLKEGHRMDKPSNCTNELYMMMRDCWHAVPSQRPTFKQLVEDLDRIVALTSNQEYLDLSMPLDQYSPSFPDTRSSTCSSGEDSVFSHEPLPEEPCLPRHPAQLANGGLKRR
Sequence of EPHB1 (P54762 whole entry, looked up): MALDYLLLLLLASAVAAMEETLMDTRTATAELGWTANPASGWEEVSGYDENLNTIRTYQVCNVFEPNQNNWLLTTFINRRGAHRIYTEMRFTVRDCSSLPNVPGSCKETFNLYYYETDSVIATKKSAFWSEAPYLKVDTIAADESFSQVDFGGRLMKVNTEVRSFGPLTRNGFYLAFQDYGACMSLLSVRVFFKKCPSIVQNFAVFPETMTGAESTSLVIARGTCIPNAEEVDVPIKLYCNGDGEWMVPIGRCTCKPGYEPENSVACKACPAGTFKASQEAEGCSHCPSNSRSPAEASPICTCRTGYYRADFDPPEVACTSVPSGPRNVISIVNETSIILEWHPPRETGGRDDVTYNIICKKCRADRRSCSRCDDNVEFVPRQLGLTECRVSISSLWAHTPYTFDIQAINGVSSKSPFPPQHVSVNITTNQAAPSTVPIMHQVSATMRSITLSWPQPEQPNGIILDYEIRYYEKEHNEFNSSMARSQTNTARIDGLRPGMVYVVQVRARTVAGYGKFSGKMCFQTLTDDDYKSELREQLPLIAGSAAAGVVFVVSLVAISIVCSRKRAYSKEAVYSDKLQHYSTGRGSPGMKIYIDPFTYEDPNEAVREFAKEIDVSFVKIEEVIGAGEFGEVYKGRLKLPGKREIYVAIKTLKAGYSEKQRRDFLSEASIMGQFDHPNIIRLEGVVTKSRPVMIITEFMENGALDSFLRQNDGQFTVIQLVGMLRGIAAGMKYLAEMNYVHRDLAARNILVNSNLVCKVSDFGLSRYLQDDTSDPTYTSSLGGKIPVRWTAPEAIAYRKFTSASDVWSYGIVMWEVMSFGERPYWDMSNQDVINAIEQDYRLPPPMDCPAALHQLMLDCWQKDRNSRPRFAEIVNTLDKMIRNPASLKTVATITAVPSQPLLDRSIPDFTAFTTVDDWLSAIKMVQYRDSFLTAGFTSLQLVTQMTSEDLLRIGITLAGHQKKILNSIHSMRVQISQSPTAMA

Sequence | phosphorylation enrichment (FGFR1) | phosphorylation enrichment (c-Abl (mouse)) | phosphorylation enrichment (FGFR3) | phosphorylation enrichment (EPHB2) | phosphorylation enrichment (Fer (mouse)) | phosphorylation enrichment (c-Src) | phosphorylation enrichment (AncSZ) | phosphorylation enrichment (EPHB1) | phosphorylation enrichment (Hck) | phosphorylation enrichment (MERTK) | phosphorylation enrichment (Fyn) | phosphorylation enrichment (Fes) | phosphorylation enrichment (Jak2) | SH2 binding enrichment (SHP2-C SH2) | SH2 binding enrichment (Grb2 SH2) | SH2 binding enrichment (c-Src SH2)
QISQDYGVLLE [PRDX3_Y172_R170Q] | 0.851 | 1.18 | 0.792 | 1.21 | 0.673 | 0.981 | 1.37 | 0.876 | 0.743 | 0.603 | 0.828 | 1.69 | 1.32 | 0.482 | 0.52 | 0.516
GLRCGYGVLGG [KRTAP20-2_Y15_Y13C] | 0.381 | 0.617 | 0.612 | 0.387 | 0.484 | 0.73 | 0.775 | 0.484 | 0.432 | 0.359 | 0.466 | 0.854 | 0.825 | 0.572 | 0.806 | 0.52
EAEPFYCSLRD [NPHS1_Y1139_R1140C_YF] | 0.668 | 0.878 | 0.896 | 1.27 | 2.19 | 2.86 | 1.54 | 1.19 | 2.54 | 1.67 | 2.66 | 1.36 | 1.17 | 0.616 | 0.941 | 0.668
RRKRAYVEIEY [MAK16_Y282_Q277R] | 0.731 | 1.04 | 1.18 | 1.06 | 0.996 | 0.999 | 1.37 | 1.02 | 1.13 | 1.22 | 0.667 | 1.21 | 1.54 | 0.938 | 1.32 | 0.37
TYGVAYRAKDK [CDK11B_Y453_V452A] | 0.791 | 0.567 | 0.537 | 0.592 | 0.38 | 0.829 | 0.712 | 0.357 | 1.15 | 0.621 | 0.812 | 0.807 | 0.578 | 0.882 | 0.881 | 0.48
FRQLQYCPSVE [CTNND2_Y508_YF] | 0.525 | 0.808 | 0.861 | 0.605 | 0.514 | 0.456 | 0.949 | 0.669 | 0.499 | 0.478 | 0.501 | 1.15 | 0.901 | 0.658 | 0.876 | 0.489
DIRAQYDELAR [KRT18_Y256] | 0.576 | 0.766 | 0.592 | 0.483 | 0.503 | 0.474 | 1.02 | 0.452 | 0.761 | 0.47 | 0.58 | 1.01 | 1.04 | 0.702 | 0.931 | 7.06
KGEDFYCVTYH [FHL1_Y149_C153Y] | 1.1 | 1.04 | 1.22 | 1.12 | 2.15 | 2.37 | 1.84 | 1.09 | 1.71 | 3.58 | 2.6 | 1.5 | 1.25 | 0.484 | 0.562 | 0.39
